Here are results for 9 molecules from patent US20210284724A1 (I MAB BIOPHARMA US, published 2021).

Where two headings read alike, the source gives them in different places. Some results are limits rather than exact numbers.

For assay [1], the target named is T1, human CXCL13 (human, UniProt O43927 23-109).
T1 construct: also called huCXCL13; rhCXCL13
T1 sequence (looked up): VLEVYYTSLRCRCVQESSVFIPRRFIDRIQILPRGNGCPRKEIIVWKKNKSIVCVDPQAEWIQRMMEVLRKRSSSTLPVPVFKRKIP
The assay can be described thus: SPR Biacore T200. How it is done: (§1) In the second approach, mutations were carried out by multiple libraries including 4 different sub libraries, such as saturated mutation libraries by CDR walking for CDR L1, CDR L3, CDR H3 or CDR L2, CDR H1, CDR H2 and saturated mutation libraries by three aa mutated continuously for CDR H3 or CDR L3. After finishing construction of phage sub libraries, antigen CXCL13 screening followed. Antibodies of these sequences were generated, and affinity testing was performed by Biacore T200. To further optimize the antibodies, the lead clones were then back mutated to its humanized counterpart one aa by one aa. Sequences were generated and synthesized for antibodies. Affinity was tested by Biacore T200.

Assay [2] addresses T1, human CXCL13. Kind of assay: ELISA, huCXCL13 coated on the plate, full length humanized IgG1 titrated, OD450. In general terms: ELISA stands for enzyme-linked immunosorbent assay.
For assay [3], the target named is T1, human CXCL13. The assay can be described thus: SPR Biacore T200. The source says: In the first approach, mutations were chosen to target the hotspots in LCDR1, HCDR2 and HCDR3. Usually, CDR3 contributes most to antigen binding and heavy chain is more important than light chain for antigen binding. Moreover, LCDR1 is important for antigen binding. For the first trial, random mutations were targeted to hotspots in LCDR1, HCDR2 and HCDR3. Eliminate hotspots that code for conserved and buried amino acids in CDRs. […] After finishing construction of phage library, antigen CXCL13 screening was followed. Antibodies of these sequences were generated, and affinity testing was performed by Biacore T200.
The source holds these as a separate data set.

Assay [4] deals with T1, human CXCL13. Kind of assay: SPR Biacore T200. How it is done:
as §1
This is another data set of the same source.

Assay [5] concerns the target T1, human CXCL13. Kind of assay: SPR Biacore T200. How it is done: To further optimization of 71F4-B, each Mutations in 71F4A3 useful for improving binding (Kon) were added into 71F4-B, the sequences were listed in Table 28. Antibodies according to these sequences were generated and affinity testing was performed by Biacore T200.
The source holds these as a separate data set. A general note: SPR reads the build-up and loss of mass on a sensor chip optically.

Assay [6] addresses T1, human CXCL13. Kind of assay: SPR Biacore T200. This is another data set of the same source.
The target in assay [7] is T1, human CXCL13. The assay can be described thus: ELISA, huCXCL13 coated on the plate, chimeric IgG1 titrated, OD450. The essentials: (§2)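 EC50 values were obtained by titrating the antibodies. For this, IgG1 antibodies in serial dilution were bound for 30 min at room temperature to plates that had been coated overnight with human CXCL13 (100 μl at 0.5 μg/ml) and blocked with 200 μl 5% BSA in PBS. Detection used goat anti-human IgG Fc-HRP for 30 min at room temperature.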

The target in assay [8] is T1, human CXCL13. The assay can be described thus: ELISA, coated antigen, chimeric IgG1. How it is done: (§3) Elisa based binding assay. […] Briefly, 100 μl of human CXCL13 or cynomolgus CXCL13 was coated at 0.5 μg/ml overnight and then blocked by 200 μl of 5% BSA in PBS. Serial diluted antibodies were incubated with the coated antigen for 30 min at RT. The resulting plates were washed with PBS/T and incubated with goat anti-human IgG Fc-HRP for 30 min RT. The plates were developed with TMB substrate after washing with 1×PBST for 5 times and reaction stopped with 1N HCl and analyzed by spectrophotometer at OD 450-630 nm.

The target of a further assay is T2, cynomolgus CXCL13 (cynomolgus, UniProt H6WS58 23-109).
T2 construct: also called cynoCXCL13; Cyno CXCL13
T2 sequence: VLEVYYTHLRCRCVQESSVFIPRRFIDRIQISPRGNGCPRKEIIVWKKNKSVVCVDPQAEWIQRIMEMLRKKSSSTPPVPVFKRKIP
Kind of assay: ELISA, coated antigen, chimeric IgG1. How it is done: as §3

For assay [9], the target named is T1, human CXCL13. The assay can be described thus: cell-based blocking ELISA, CXCL13 to CHO-K1-CXCR5. As for the experimental part:
This example tested the blocking of the anti-CXCL13 chimeric antibodies to CHO-K1-CXCR5 cells. Briefly, 5×10⁴ CHO-K1-CXCR5 cells were plated in 96-well plate with 100 μl of culture medium and incubated at 37° C. overnight. Cells were fixed with 100 μl of 2% PFA at RT for 1 hr after washing with PBS for 1 time. Samples were blocked with 1% BSA in PBST for 1 hr at RT. Antibodies were serial diluted from 50 μg/ml by 3-fold with 1% BSA/PBST and pre-incubated with equal volume of 0.3 μg/ml human CXCL13 for 30 min at RT. 100 μl of antibody-antigen complex was transferred into each cell wells for 30 min at RT. Samples were washed with 1×PBST for 3 times and 100 μl of 3 μg/ml of human Mab5261 antibody was added into each well to capture human CXCL13 and anti-human Fc-HRP was used to indirectly detect human CXCL13 when it bound to CHO-K1-CXCR5 cells.
Then read at 450 nm. […] Among all clones, 415A3D1, 64C10G1, 1H3A11, 414D10F5, 411A11E9, 21H12D9, 71F4A3, 329F2E1 show completely blocking activity and 408E3F3, 19H7E10, 339A6E7 appeared to be partial blockers.

Assay [10] addresses T1, human CXCL13. The assay can be described thus: ELISA, huCXCL13 coated on the plate, full length humanized IgG1 titrated, OD450. In a few lines:
as §2
The source holds these as a separate data set.

Assay [11] concerns the target T1, human CXCL13. The assay can be described thus: ELISA, huCXCL13 coated on the plate, chimeric IgG1 titrated, OD450. In a few lines: as §2
The source holds these as a separate data set.

B1: 71F4A3-VH1VL1 (Hz71F4) (D54E) humanized IgG1 (antibody, V domains shown)
VH: EVQLVESGGGLVQPGGSLRLSCAASGIDFSRYWMSWVRQAPGKGLEWVAEINPESSTINYAPSLKDRFTISRDNAKNSLYLQMNSLRAEDTAVYYCARQDDYEYYAMDYWGQGTTVTVSS
VL: DIQMTQSPSSLSASVGDRVTITCKASQDVNTGVAWYQQKPGKAPKLLIYSASYRYTGVPSRFSGSGSGTDFTFTISSLQPEDIATYYCQQYYSTPLTFGGGTKLEIK
notes: Full length IgG1, human gamma 1 and kappa; also called Hz71F4A3
As to B1, in the assay with human CXCL13 [1], the “apparent Kd (pooled screen)” value amounted to 2.58 nM, the “apparent koff (pooled screen)” value was determined as 0.000645 s⁻¹ and the “apparent kon (pooled screen)” value amounted to 250000 M⁻¹ s⁻¹. The “apparent EC50 (pooled screen)” value with human CXCL13 [2] worked out at 0.108 nM. Moreover, the “apparent kon (pooled screen)” value with human CXCL13 [3] worked out at 377000 M⁻¹ s⁻¹. The “apparent koff (pooled screen)” value with human CXCL13 [4] is 0.00126 s⁻¹.

B2: 71F4A3-VH1VL2 (D54E) humanized IgG1 (antibody, V domains shown)
VH: EVQLVESGGGLVQPGGSLRLSCAASGIDFSRYWMSWVRQAPGKGLEWVAEINPESSTINYAPSLKDRFTISRDNAKNSLYLQMNSLRAEDTAVYYCARQDDYEYYAMDYWGQGTTVTVSS
VL: DIQMTQSPSSLSASVGDRVTITCKASQDVNTGVAWYQQKPGKAPKLLIYSASYRYTGVPSRFSGSGSGTDFTFTISSVQPEDIATYYCQQYYSTPLTFGGGTKLEIK
notes: Full length IgG1, human gamma 1 and kappa constant domains
B2 had an EC50 with human CXCL13 [2] of 0.0961 nM.

B3: 71F4-B (antibody, V domains shown)
VH: EVQLVESGGGLVQPGGSLRLSCAASGIDFSRYWMSWVRQAPGKGLEWVAEINPESSTINYAPSLKDRFTISRDNAKNSLYLQMNSLRAEDTAVYYCARQDDYEYYTMDYWGQGTTVTVSS
VL: DIQMTQSPSSLSASVGDRVTITCKVSQDVNTGVAWYQQKPGKAPKLLIYSASYRYTGVPSRFSGSGSGTDFTFTISSLQPEDIATYYCQQYYSTPLTFGGGTKLEIK
notes: also called 71F4A3-B
For the molecule B3, the results for the Kd with human CXCL13 [5], with human CXCL13 [1] and with human CXCL13 [6] were 0.36 nM, 0.195 nM and below 1 nM, respectively. Moreover, the values for the koff in the assay with human CXCL13 [5] and with human CXCL13 [1] were 6.59e-05 s⁻¹ and 3.57e-05 s⁻¹, respectively. Also, the kon with human CXCL13 [5] and with human CXCL13 [1] was 183000 M⁻¹ s⁻¹ in each case.

B4: 005-3-18 (antibody, V domains shown)
VH: EVQLVESGGGLVQPGGSLRLSCAASGIDFSRYWMSWVRQAPGKGLEWVAEINPESSTINYAPSLKDRFTISRDNAKNSLYLQMNSLRAEDTAVYYCARQDDYEYYTMDYWGQGTTVTVSS
VL: DIQMTQSPSSLSASVGDRVTITCKVSQDVNTGVAWYQQKPGKAPKLLIYSASYRYTGVPSRFSGSGSGTDFTFTISSLQPEDIATYYCQQYWSTPLTFGGGTKLEIK
On to B4, for which, in the assay with human CXCL13 [1], the Kd was 1.24 nM, the koff was 0.000153 s⁻¹ and the kon was 124000 M⁻¹ s⁻¹. The molecule also came in with a koff in the assay with human CXCL13 [4] of 0.000158 s⁻¹.

B5: 005-2-45 (antibody, V domains shown)
VH: EVQLVESGGGLVQPGGSLRLSCAASGIDFSRYWMSWVRQAPGKGLEWVAEINPESSTINYAPSLKDRFTISRDNAKNSLYLQMNSLRAEDTAVYYCARQDDTRYYAMDYWGQGTTVTVSS
VL: DIQMTQSPSSLSASVGDRVTITCKASQDVNTGVAWYQQKPGKAPKLLIYSASYRYTGVPSRFSGSGSGTDFTFTISSLQPEDIATYYCQQYYSTPLTFGGGTKLEIK
Molecule B5 yielded a koff with human CXCL13 [4] of 0.000776 s⁻¹.

B6: 005-3-23 (antibody, V domains shown)
VH: EVQLVESGGGLVQPGGSLRLSCAASGIDFSRYWMSWVRQAPGKGLEWVAEINPESSTINYAPSLKDRFTISRDNAKNSLYLQMNSLRAEDTAVYYCARQEDYEYYALDYWGQGTTVTVSS
VL: DIQMTQSPSSLSASVGDRVTITCKASQDVNTGVYWYQQKPGKAPKLLIYSASYRYTGVPSRFSGSGSGTDFTFTISSLQPEDIATYYCQQGYSTPLTFGGGTKLEIK
Regarding B6, the koff with human CXCL13 [4] was determined as 0.000403 s⁻¹.

B7: 64C10G1 chimeric human IgG1 antibody (antibody, V domains shown)
VH: EVQLVESGGGLVKPGGSLKLSCAASGFTFSSYAMSWVRQTPEKRLEWVATISDGGSDAYYPDNVKGRFTISRDNAKNNLYLQMSHLKSEDTAMYYCARDYYGSGYEDSPMDYWGQGTSVTVSS
VL: DIQMTQSPSSLSASLGGKVTITCKASQDINKYIAWYQHKPGKGPRLLIHYTSTLQPGIPSRFSGSGSGRDYSFSISNLEPEDFATYYCLQYDNLYTFGGGTKLEIK
notes: Chimeric human IgG1; also called chimeric 64C10G1
Turning to B7, the 50% effective concentration (EC50) is 0.0305 nM with human CXCL13 [7], 0.0401 µg/mL in the assay with human CXCL13 [8] and 0.0563 µg/mL in the assay with cynomolgus CXCL13. Also, it took 1.1 µg/mL to reach half-maximal inhibition with human CXCL13 [9] (IC50).

B8: 64C10G1-VH1VL3 (D53E, D107E) humanized IgG1 (antibody, V domains shown)
VH: EVQLVESGGGLVQPGGSLRLSCAASGFTFSSYAMSWVRQAPGKGLEWVATISEGGSDAYYPDNVKGRFTISRDNAKNSLYLQMNSLRAEDTAVYYCARDYYGSGYEESPMDYWGQGTLVTVSS
VL: DIQMTQSPSSLSASVGDRVTITCKASQDINKYIAWYQQKPGKAPKLLIHYTSTLQPGIPSRFSGSGSGTDFTFTISSLQPEDFATYYCLQYDNLYTFGGGTKLEIK
notes: as for B2
In the assay with human CXCL13 [10], B8 returned an EC50 of 0.0664 nM.

B9: 71F4A3 chimeric human IgG1 antibody (antibody, V domains shown)
VH: EVKLLQSGGGLVQPGGSLKLSCAASGIDFSRYWMSWVRRAPGKGLEWIGEINPDSSTINYAPSLKDKFIISRDNAKNTLYLQMSKVRSEDTALYYCARQDDYEYYAMDYWGQGTSVTVSS
VL: DIVMTQSHKSMSTSVGDRVSITCKASQDVNTGVAWYRQKPGQSPKLLIYSASYRYTGVPDRFTGSGSGTDFTFTISSVQAEDLAVYYCQQYYSTPLTFGAGTKLELK
notes: Chimeric human IgG1; also called chimeric 71F4A3
Consider B9, for which the EC50 with human CXCL13 [8] was 0.0381 µg/mL; with cynomolgus CXCL13 it was 0.0814 µg/mL; with human CXCL13 [11], 0.116 nM. Moreover, the IC50 in the assay with human CXCL13 [9] turned out to be 3.02 µg/mL.

The EC50 is the concentration giving half of the maximal effect. Low readings indicate higher potency in that assay, high ones lower potency in that assay. The Kd is the concentration at which binding is half-saturated. Low values mean a tighter complex, high ones a looser complex. Usually koff stands for a measure of how fast the partners let go of each other. Low readings indicate slow dissociation, high ones fast dissociation. By kon is commonly meant a measure of how fast the partners come together. The IC50 is the concentration needed to halve the response being measured. A lower IC50 goes with greater potency.
